Assay results published in patent US20220204613A1 (D 10 THERAPEUTICS, published 2022).
Numbering of substitutions follows the chain as printed. Names may count otherwise.

B1: 41B1H9 (antibody, V domains shown)
VH: EVQLQQSGTELVKPGASVRLSCTASGLDIKDTYMHWLKQRPEQGLEWIGRIDPASGNAKHDPKFQGKATITSDPSSNTANLQLTSLTSEDSAVYYCASGYGHYVGAMDYWGQGTSVTVSS
VL: DIQMNQSPSSLSASLGDTITITCHASQNINVWLSWYQQKPGNIPKLLIYKASNLHTGVPSRFSGSGSGTGFTLTISSLQPEDIATYYCQQSRNYPYTFGGGTKLEIK
notes: Mouse hybridoma antibody; also called antibody 41B1H9
B2: VH1-PTM+VL1 (antibody, human IgG4 S228P, kappa, V domains shown)
VH: QVQLVQSGAEVKKPGASVKVSCKASGYTFTSSVIHWVRQAPGQGLEWMGYINPYSEGTKFNEKSKIRVTMTRDTSISTAYMELSRLRSDDTAVYYCARGLIGTRYDSWFAYWGQGTLVTVSS
VL: DIQMTQSPSSLSASVGDRVTITCRTSQDINNYLNWYQQKPGKAPKLLIYYTSRLHSGVPSRFSGSGSGTDFTFTISSLQPEDIATYYCQQGNTLPYTFGGGTKVEIKR
notes: Purified humanized IgG with PTM sites removed, hIgG4 CH (S228P) and human kappa CL; leader residues 1-19 of each entry left out; also called U0959FD090-VH1-PTM + U0959FD090-VL1
B3: VH1-PTM+VL3 (antibody, human IgG4 S228P, kappa, V domains shown)
VH: B2 VH
VL: B2 VL with P44V, F71Y, Y87F
notes: Purified humanized IgG with PTM sites removed, hIgG4 CH (S228P) and human kappa CL; leader residues 1-19 of each entry left out; also called U0959FD090-VH1-PTM + U0959FD090-VL3
B4: VH1-PTM+VL2 (antibody, human IgG4 S228P, kappa, V domains shown)
VH: B2 VH
VL: B2 VL with P44V, Y87F
notes: Purified humanized IgG with PTM sites removed, hIgG4 CH (S228P) and human kappa CL; leader residues 1-19 of each entry left out; also called U0959FD090-VH1-PTM + U0959FD090-VL2
B5: 37H4H3 (antibody, V domains shown)
VH: EVQLQQSGPELVKPGASVKLSCKASGYTFTSSVMHWVKQKPGQGLEWLGYINPYSDGTKFNEKYKTKATLTSDKSSSTAYMELSSLTSEDSAVYYCARGLIGTRYDSWFAYWGQGTLVTVSA
VL: DIQMTQNASSLSASLGDRVTISCRTSQDINNYLNWYQQKPDGTVKLLIYYTSRLHSGVPSRFSGSGSGTDYSLSIRYLEQEDIATYFCHQGNTLPYTFGGGTKLEIK
notes: Mouse hybridoma antibody; also called antibody 37H4H3
B6: 33H11F3 (antibody, V domains shown)
VH: EVQLQQSGPELVKPGASVKMSCKASGYTFTSYVMHWVKQKPGQGLEWMGYINPYNDGTKYNEKFKGKATLTSDKSSNTAYMEFSSLTSEDSAVYYCARIDYGTIHTSWFAYWGQGTLVTVSA
VL: B5 VL with Q6H, N7T, A8T, T25A, N30S, S74T, R76S, Y77N, H89Q, Y96W
notes: Mouse hybridoma antibody; also called antibody 33H11F3
B7: chimeric-VH+VL2 (antibody, human IgG4, V domains shown)
VH: B5 VH with M34I, Y64C, T66I
VL: B1 VL with S91G, R92Q, N93S, Y96L, G100A, I106L
B8: 38F1E12 (antibody, V domains shown)
VH: EVQLQQSGPELVQPGASVRMSCKASGYTFTSYVMHWVKQKPGQGLEWIGYINPYNDGTKYNEKFKGKATLTSDKSSSTAYMELSSLTSEDSAVYYCARGRNRYDGWFTYWGQGTLVTVSA
VL: B5 VL with N7T, A8T, S9F, T25A, N30S, S74T, R76S, Y77N, H89Q
notes: Mouse hybridoma antibody; also called antibody 38F1E12
B9: chimeric-VH+VL-1 (antibody, human IgG4, V domains shown)
VH: B5 VH with M34I, Y64C, T66I
VL: B5 VL with A8G, P40Q, S74T, Y77N, H89Q
notes: also called chimeric antibody
B10: 32G8H6 (antibody, V domains shown)
VH: B5 VH with M34I, Y64C, T66I
VL: B5 VL with A8G, P40Q, S74T, Y77N, H89Q
notes: Mouse hybridoma antibody; also called parent mAb (32G8H6); 32G8H6 (mAb)

Columns and labels:
human CD47 protein [1] = biological target: T1, human CD47 protein (human, UniProt Q08722 19-139, limits assumed); experiment: SPR Biacore, supernatant ranking run, human CD47 analyte 5 nM
T1 construct: also called human CD47 antigen
T1 sequence (Q08722 19-139 limits assumed): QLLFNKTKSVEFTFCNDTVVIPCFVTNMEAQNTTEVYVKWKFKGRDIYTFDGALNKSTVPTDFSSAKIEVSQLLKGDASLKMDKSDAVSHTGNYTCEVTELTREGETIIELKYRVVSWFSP

human CD47 protein [2] = biological target: T1, human CD47 protein; experiment: SPR (Biacore) affinity ranking, ligand captured through Fc, human CD47 as analyte, 25 °C, 1:1 Binding model; fit of a flat sensorgram
human CD47 protein [3] = biological target: T1, human CD47 protein; experiment: ELISA on human CD47 protein, antibody 15 ug/ml
human CD47 protein [4] = biological target: T1, human CD47 protein; experiment: ELISA on human CD47 protein, antibody 2.06E-02 ug/ml
human CD47 protein [5] = biological target: T1, human CD47 protein; experiment: ELISA on human CD47 protein, antibody 6.17E-02 ug/ml
human CD47 protein [6] = biological target: T1, human CD47 protein; experiment: ELISA on human CD47 protein, antibody 5.00E+00 ug/ml
human CD47 protein [7] = biological target: T1, human CD47 protein; experiment: ELISA on human CD47 protein, antibody 5.56E-01 ug/ml
human CD47 protein [8] = biological target: T1, human CD47 protein; experiment: ELISA on human CD47 protein, antibody 1.85E-01 ug/ml
human CD47 protein [9] = biological target: T1, human CD47 protein; experiment: ELISA on human CD47 protein, antibody 1.67E+00 ug/ml
human CD47 protein [10] = biological target: T1, human CD47 protein; experiment: ELISA on human CD47 protein, antibody 7.62E-04 ug/ml
human CD47 protein [11] = biological target: T1, human CD47 protein; experiment: ELISA on human CD47 protein, antibody 6.86E-03 ug/ml
human CD47 protein [12] = biological target: T1, human CD47 protein; experiment: ELISA on human CD47 protein, OD450nm against log Ab conc; EC50 row of the table drawn under the plot; fit of the flat control curve
human CD47 protein [13] = biological target: T1, human CD47 protein; experiment: ELISA on human CD47 protein, antibody 45 ug/ml
human CD47 protein [14] = biological target: T1, human CD47 protein; experiment: ELISA on human CD47 protein, antibody 2.29E-03 ug/ml
[15] = biological target: T2, extracellular domain of human CD47 (human, UniProt Q08722 19-139); experiment: hybridoma screening ELISA on the immunogen
T2 construct: also called immunogen
T2 sequence (Q08722 19-139 limits assumed): as above
Protocol: Balb/c mice (4-6 mice per group) were immunized with the extracellular domain of human CD47 and immune adjuvant. Immune boosts were performed 3-5 times. Serum collection and titer evaluation by ELISA against target immunogen were performed. Spleens were extracted surgically from the highest titer mouse or mice. Mouse spleen cells were fused with rat myeloma cells facilitated by PEG. Fused cells were seeded into 96-well plates in the presence of HAT Fusion medium. Three consecutive rounds of clone testing were performed by ELISA using the immunogen for positive screening to identify and validate the positive hybridoma clones. Hybridoma cell lines producing the most suitable antibodies were subcloned and expanded for monoclonal antibody production and cell storage.

human CD47 protein [16] = biological target: T1, human CD47 protein; experiment: SPR Biacore, purified IgG Fc-captured, human CD47 analyte 0.3125-10 nM
From the text: Affinity measurement of purified humanized IgGs. The affinity of purified antibody binding to human CD47 was individually determined using a Surface Plasmon Resonance (SPR) biosensor, Biacore® T200/8K (GE Healthcare). Antibodies were captured on the sensor chip through Fc capture method. Human CD47 protein was used as the analyte. The data of dissociation (kd) and association (ka) rate constants were obtained using Biacore T200/8K evaluation software. The equilibrium dissociation constants (KD) were calculated from the ratio of kd over ka.

human CD47 protein [17] = biological target: T1, human CD47 protein; experiment: ELISA on human CD47 protein, antibody 0 ug/ml (blank)
human CD47 protein [18] = biological target: T1, human CD47 protein; experiment: SPR Biacore, supernatant antibody Fc-captured, human CD47 analyte 5 nM
Protocol: Production and affinity ranking of humanized antibodies. The designed plasmids of heavy chain and light chain were sent for 3 mL transfection following GenScript's SOP. For affinity ranking, Antibodies were captured on the sensor chip through Fc capture method. Human CD47 protein was used as the analyte. The surface was regenerated before the injection of another antibody. The process was repeated until all antibodies were analyzed. The off-rates of antibodies were obtained from fitting the experimental data locally to 1:1 interaction model using the Biacore® T200/8K evaluation software. The antibodies were ranked by their dissociation rate constants (off-rates, kd).

human CD47 protein [19] = biological target: T1, human CD47 protein; experiment: ELISA on human CD47 protein, OD450nm against log Ab conc; EC50 row of the table drawn under the plot; the curve has no lower plateau in the range shown

Molecule | ELISA signal (human CD47 protein [3]) | ELISA signal (human CD47 protein [4]) | ELISA signal (human CD47 protein [5]) | ELISA signal (human CD47 protein [6]) | ELISA signal (human CD47 protein [7]) | ELISA signal (human CD47 protein [8]) | ELISA signal (human CD47 protein [9]) | ELISA signal (human CD47 protein [10]) | ELISA signal (human CD47 protein [11]) | ELISA signal (human CD47 protein [13]) | ELISA signal (human CD47 protein [14]) | binding result [15] | Kd (human CD47 protein [16]) [nM] | koff (human CD47 protein [16]) [s⁻¹] | kon (human CD47 protein [16]) [M⁻¹ s⁻¹] | also measured
NC |  |  |  |  |  |  |  |  |  |  |  |  |  |  |  | Kd (human CD47 protein [1]): 387 nM; koff (human CD47 protein [1]): 0.0179 s⁻¹; kon (human CD47 protein [1]): 46300 M⁻¹ s⁻¹; Kd (human CD47 protein [2]): 387 nM; koff (human CD47 protein [2]): 0.0179 s⁻¹; kon (human CD47 protein [2]): 46300 M⁻¹ s⁻¹
Isotype control (antibody) | 0.49 | 0.48 | 0.445 | 0.562 | 0.553 | 0.551 | 0.454 | 0.211 | 0.387 | 0.543 | 0.287 |  |  |  |  | EC50 (human CD47 protein [12]): 3.42 ng/mL
B1 |  |  |  |  |  |  |  |  |  |  |  | binds |  |  |  | 
B2 |  |  |  |  |  |  |  |  |  |  |  |  | 0.872 | 0.0023 | 2.64e+06 | 
B3 |  |  |  |  |  |  |  |  |  |  |  |  | 0.458 | 0.0016 | 3.49e+06 | 
B4 |  |  |  |  |  |  |  |  |  |  |  |  | 0.556 | 0.00193 | 3.46e+06 | 
B5 |  |  |  |  |  |  |  |  |  |  |  | binds |  |  |  | 
B6 |  |  |  |  |  |  |  |  |  |  |  | binds |  |  |  | 
B7 | 1.39 | 0.342 | 0.435 | 0.918 | 0.56 | 0.475 | 0.663 | 0.255 | 0.44 | 1.95 | 0.276 |  |  |  |  | ELISA signal (human CD47 protein [17]): 0.251
B8 |  |  |  |  |  |  |  |  |  |  |  | binds |  |  |  | 
B9 | 3.39 | 2.9 | 3.19 | 3.48 | 3.32 | 3.34 | 3.32 | 1.71 | 2.64 | 3.48 | 2.4 |  | 0.482 | 0.00255 | 5.3e+06 | ELISA signal (human CD47 protein [17]): 0.162; Kd (human CD47 protein [18]): 0.34 nM; koff (human CD47 protein [18]): 0.00261 s⁻¹; kon (human CD47 protein [18]): 7.69e+06 M⁻¹ s⁻¹
B10 | 3.87 | 3.33 | 3.73 | 3.78 | 3.8 | 3.81 | 3.71 | 2.32 | 2.98 | 3.83 | 2.68 |  |  |  |  | EC50 (human CD47 protein [19]): 6.55 ng/mL; ELISA signal (human CD47 protein [17]): 0.086
